The values that follow come from IntAct's records for PubMed 24500646.

Sequences and labels used below:
B1: DDB1- and CUL4-associated factor 8 (Homo sapiens), Q5TAQ9 (parent)
chain: MSSKGSSTDGRTDLANGSLSSSPEEMSGAEEGRETSSGIEVEASDLSLSLTGDDGGPNRTSTESRGTDTESSGEDKDSDSMEDTGHYSINDENRVHDRSEEEEEEEEEEEEEQPRRRVQRKRANRDQDSSDDERALEDWVSSETSALPRPRWQALPALRERELGSSARFVYEACGARVFVQRFRLQHGLEGHTGCVNTLHFNQRGTWLASGSDDLKVVVWDWVRRQPVLDFESGHKSNVFQAKFLPNSGDSTLAMCARDGQVRVAELSATQCCKNTKRVAQHKGASHKLALEPDSPCTFLSAGEDAVVFTIDLRQDRPASKLVVTKEKEKKVGLYTIYVNPANTHQFAVGGRDQFVRIYDQRKIDENENNGVLKKFCPHHLVNSESKANITCLVYSHDGTELLASYNDEDIYLFNSSHSDGAQYVKRYKGHRNNATVKGVNFYGPKSEFVVSGSDCGHIFLWEKSSCQIIQFMEGDKGGVVNCLEPHPHLPVLATSGLDHDVKIWAPTAEASTELTGLKDVIKKNKRERDEDSLHQTDLFDSHMLWFLMHHLRQRRHHRRWREPGVGATDADSDESPSSSDTSDEEEGPDRVQCMPS

The test covers variants of B1. To be noted: with ddb1_human DDB1, Q16531.
Chain of ddb1_human DDB1, Q16531 (Q16531 whole entry): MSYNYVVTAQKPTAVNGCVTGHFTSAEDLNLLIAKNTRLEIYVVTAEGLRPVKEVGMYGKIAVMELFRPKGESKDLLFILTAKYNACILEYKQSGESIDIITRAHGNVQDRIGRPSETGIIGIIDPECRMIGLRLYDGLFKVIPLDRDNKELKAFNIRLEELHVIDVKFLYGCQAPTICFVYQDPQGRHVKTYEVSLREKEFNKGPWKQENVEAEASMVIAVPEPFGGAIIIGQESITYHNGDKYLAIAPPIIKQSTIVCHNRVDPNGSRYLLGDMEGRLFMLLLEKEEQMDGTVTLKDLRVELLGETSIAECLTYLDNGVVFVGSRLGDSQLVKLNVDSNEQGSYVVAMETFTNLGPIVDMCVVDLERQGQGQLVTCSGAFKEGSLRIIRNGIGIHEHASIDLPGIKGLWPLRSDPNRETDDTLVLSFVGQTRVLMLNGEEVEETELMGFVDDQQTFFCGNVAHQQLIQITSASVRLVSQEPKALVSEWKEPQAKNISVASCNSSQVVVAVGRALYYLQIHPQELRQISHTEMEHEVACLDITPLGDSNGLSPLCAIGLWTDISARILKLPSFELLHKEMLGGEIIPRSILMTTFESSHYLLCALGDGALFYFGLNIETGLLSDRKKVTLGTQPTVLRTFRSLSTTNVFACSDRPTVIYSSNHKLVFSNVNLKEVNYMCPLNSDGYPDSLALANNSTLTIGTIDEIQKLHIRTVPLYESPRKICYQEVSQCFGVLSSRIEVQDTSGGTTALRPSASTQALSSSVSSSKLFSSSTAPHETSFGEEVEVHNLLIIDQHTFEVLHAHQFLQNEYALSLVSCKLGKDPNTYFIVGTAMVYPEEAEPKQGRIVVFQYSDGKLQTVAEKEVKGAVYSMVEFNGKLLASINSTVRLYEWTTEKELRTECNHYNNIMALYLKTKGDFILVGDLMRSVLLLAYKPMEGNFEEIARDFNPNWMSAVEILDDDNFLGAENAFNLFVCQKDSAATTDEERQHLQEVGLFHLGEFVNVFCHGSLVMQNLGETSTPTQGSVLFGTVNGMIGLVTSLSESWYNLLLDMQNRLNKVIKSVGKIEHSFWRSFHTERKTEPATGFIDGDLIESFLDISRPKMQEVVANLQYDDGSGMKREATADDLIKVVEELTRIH
Consider R317C, for which the “effect of a mutation on the interaction” value was “decreasing interaction strength”.
The same measure for R314H: “decreasing interaction strength”.
